Measured values reported in patent US20260167728A1 (published 2026).
Numbering of substitutions follows the chain as printed.

B1: AC3860 (CD3.356) (scFv, V domains shown)
VH: EVQLVESGGGIVQPGGSLRLSCAASGFTFSTYAMNWVRQAPGKGLEWVGRIRTKTNDYATYYADSVKGRFTISRDDSKNTAYLQMNSLKTEDTAVYYCVRHENFGNSYVSWFAHWGQGTLVTVSS
VL: ELVVTQEPSLTVSPGGTVTLTCRSSNGAVTSSNYANWVQQKPGQAPRGLIGGTNKRAPGTPARFSGSALGGKAALTLSGVQPEDEAVYYCALWYPNLWVFGGGTKLTVL
notes: Pool 3 format (remarks)
B2: AC3881 (CD3.377) (scFv, V domains shown)
VH: B1 VH with T55R, D57N, Y61T, A81V
VL: B1 VL with A68L
notes: Pool 3 format (remarks)
B3: AC3805 (CD3.301) (scFv, V domains shown)
VH: B1 VH with T55R
VL: B1 VL with A68L
notes: Pool 3 format (remarks)
B4: AC3809 (CD3.305) (scFv, V domains shown)
VH: B1 VH with T55R
VL: B1 VL with A68L, L69E
notes: Pool 3 format (remarks)
B5: AC3885 (CD3.381) (scFv, V domains shown)
VH: B1 VH with T55R, D57N, A81V, N106A
VL: B1 VL with A68L
notes: Pool 3 format (remarks)
B6: AC3813 (CD3.309) (scFv, V domains shown)
VH: B1 VH with T55R
VL: B1 VL with A68L, G70E
notes: Pool 3 format (remarks)
B7: AC3811 (CD3.307) (scFv, V domains shown)
VH: B1 VH with T55R
VL: B1 VL with A68L, L69D
notes: Pool 3 format (remarks)
B8: AC3797 (CD3.293) (scFv, V domains shown)
VH: B1 VH with T55R, D57N, A81V
VL: B1 VL
notes: Pool 3 format (remarks)
B9: AC3800 (CD3.296) (scFv, V domains shown)
VH: B1 VH with T55R, D57N, A81V
VL: B1 VL with A68L, L69E
notes: Pool 3 format (remarks)
B10: AC3801 (CD3.297) (scFv, V domains shown)
VH: B1 VH with T55R, D57N, A81V
VL: B1 VL with A68L, L69G
notes: Pool 3 format (remarks)
B11: AC3802 (CD3.298) (scFv, V domains shown)
VH: B1 VH with T55R, D57N, A81V
VL: B1 VL with A68L, L69D
notes: Pool 3 format (remarks)
B12: AC3886 (CD3.382) (scFv, V domains shown)
VH: B1 VH with T55R, D57N, A81V, S107A
VL: B1 VL with A68L
notes: Pool 3 format (remarks)
B13: AC3798 (CD3.294) (scFv, V domains shown)
VH: B1 VH with T55R, D57N, A81V
VL: B1 VL with A68G
notes: Pool 3 format (remarks)
B14: AC3803 (CD3.299) (scFv, V domains shown)
VH: B1 VH with T55R, D57N, A81V
VL: B1 VL with A68L, A74G
notes: Pool 3 format (remarks)
B15: AC3850 (CD3.346) (scFv, V domains shown)
VH: B1 VH with D57N, A81V
VL: B1 VL with A68L
notes: Pool 3 format (remarks)
B16: AC3878 (CD3.374) (scFv, V domains shown)
VH: B1 VH with V48G, T55R, D57N, A81V
VL: B1 VL with A68L
notes: Pool 3 format (remarks)
B17: AC3834 (CD3.330) (scFv, V domains shown)
VH: B1 VH with S30N
VL: B1 VL with A68G
notes: Pool 3 format (remarks)
B18: AC3857 (CD3.353) (scFv, V domains shown)
VH: B1 VH with D57N, A81V
VL: B1 VL with A68L, A74G
notes: Pool 3 format (remarks)
B19: AC3842 (CD3.338) (scFv, V domains shown)
VH: B1 VH with S30N, A81L
VL: B1 VL
notes: Pool 3 format (remarks)
B20: AC3838 (CD3.334) (scFv, V domains shown)
VH: B1 VH with S30N
VL: B1 VL with A68L, L69D
notes: Pool 3 format (remarks)
B21: AC3830 (CD3.326) (scFv, V domains shown)
VH: B1 VH with S30N, D57N, A81V
VL: B1 VL with A68L, A74G
notes: Pool 3 format (remarks)
B22: AC3882 (CD3.378) (scFv, V domains shown)
VH: B1 VH with T55R, D57N, Y62D, A81V
VL: B1 VL with A68L
notes: Pool 3 format (remarks)
B23: AC3844 (CD3.340) (scFv, V domains shown)
VH: B1 VH with S30N, A81L
VL: B1 VL with A68L, L69N
notes: Pool 3 format (remarks)
B24: AC3877 (CD3.373) (scFv, V domains shown)
VH: B1 VH with W47D, T55R, D57N, A81V
VL: B1 VL with A68L
notes: Pool 3 format (remarks)
B25: AC3884 (CD3.380) (scFv, V domains shown)
VH: B1 VH with T55R, D57N, A59T, A81V
VL: B1 VL with A68L
notes: Pool 3 format (remarks)
B26: AC3845 (CD3.341) (scFv, V domains shown)
VH: B1 VH with S30N, A81L
VL: B1 VL with A68L, L69E
notes: Pool 3 format (remarks)
B27: AC3847 (CD3.343) (scFv, V domains shown)
VH: B1 VH with S30N, A81L
VL: B1 VL with A68L, L69D
notes: Pool 3 format (remarks)
B28: AC3835 (CD3.331) (scFv, V domains shown)
VH: B1 VH with S30N
VL: B1 VL with A68L, L69N
notes: Pool 3 format (remarks)
B29: AC3880 (CD3.376) (scFv, V domains shown)
VH: B1 VH with T55P, D57N, A81V
VL: B1 VL with A68L
notes: Pool 3 format (remarks)
B30: AC3869 (CD3.365) (scFv, V domains shown)
VH: B1 VH with A81L
VL: B1 VL
notes: Pool 3 format (remarks)
B31: AC3660 (CD3.229) (bispecific antibody, V domains shown)
VH: B1 VH with S30N, D57N, A81V
VL: B1 VL with A68L
notes: Pool 2 format (remarks)
B32: AC3846 (CD3.342) (scFv, V domains shown)
VH: B1 VH with S30N, A81L
VL: B1 VL with A68L, L69G
notes: Pool 3 format (remarks)
B33: AC3659 (CD3.228) (bispecific antibody, V domains shown)
VH: B1 VH with T55R, D57N, A81V
VL: B1 VL with A68L
notes: Pool 2 format (remarks)
B34: AC3843 (CD3.339) (scFv, V domains shown)
VH: B1 VH with S30N, A81L
VL: B1 VL with A68G
notes: Pool 3 format (remarks)
B35: AC3883 (CD3.379) (scFv, V domains shown)
VH: B1 VH with T55R, D57N, Y62W, A81V
VL: B1 VL with A68L
notes: Pool 3 format (remarks)
B36: AC3867 (CD3.363) (scFv, V domains shown)
VH: B1 VH
VL: B1 VL with A68L, G70E
notes: Pool 3 format (remarks)
B37: AC3839 (CD3.335) (scFv, V domains shown)
VH: B1 VH with S30N
VL: B1 VL with A68L, A74G
notes: Pool 3 format (remarks)
B38: AC3849 (CD3.345) (scFv, V domains shown)
VH: B1 VH with S30N, A81L
VL: B1 VL with A68L, G70E
notes: Pool 3 format (remarks)
B39: AC3840 (CD3.336) (scFv, V domains shown)
VH: B1 VH with S30N
VL: B1 VL with A68L, G70E
notes: Pool 3 format (remarks)
B40: AC3836 (CD3.332) (scFv, V domains shown)
VH: B1 VH with S30N
VL: B1 VL with A68L, L69E
notes: Pool 3 format (remarks)
B41: AC3848 (CD3.344) (scFv, V domains shown)
VH: B1 VH with S30N, A81L
VL: B1 VL with A68L, A74G
notes: Pool 3 format (remarks)
B42: AC3837 (CD3.333) (scFv, V domains shown)
VH: B1 VH with S30N
VL: B1 VL with A68L, L69G
notes: Pool 3 format (remarks)
B43: AC3841 (CD3.337) (scFv, V domains shown)
VH: B1 VH with S30N, A81L
VL: B1 VL with A68L
notes: Pool 3 format (remarks)
B44: AC3829 (CD3.325) (scFv, V domains shown)
VH: B1 VH with S30N, D57N, A81V
VL: B1 VL with A68L, L69D
notes: Pool 3 format (remarks)

What follows are binders tested against T1, huCD3e-mFc (human, UniProt P07766 23-126) (assay: Pool 3 screen, R3).
T1 construct: not shown: mFc, not described
T1 sequence (P07766 23-126): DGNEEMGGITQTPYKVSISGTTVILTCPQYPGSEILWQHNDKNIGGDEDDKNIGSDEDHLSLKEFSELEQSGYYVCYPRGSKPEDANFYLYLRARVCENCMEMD
Work on B1 yielded a Kd of 19.7 nM. B2 showed a Kd of 10.4 nM. Binder B3 has a Kd of 4.4 nM. B4 was tested, and the Kd was 4.6 nM. B5 was tested, and the Kd was 4.2 nM. B6 gave a Kd of 5.4 nM. Work on B7 yielded a Kd of 4.8 nM.

Each binder was assayed against T1, huCD3e-mFc (assay: Pool 3 screen, R2).
B8 gave a Kd of 3.72 nM. B9 showed a Kd of 17 nM. Binder B10 has a Kd of 21.2 nM. B11 was tested, and the Kd was 8 nM. Binder B12 has a Kd of 21.2 nM. Work on B13 yielded a Kd of 5.75 nM. B14 was tested, and the Kd was 7.96 nM. B15 was tested, and the Kd was 10.8 nM. For B16, the Kd was 17 nM.

What follows are binders tested against T1, huCD3e-mFc (assay: Pool 3 screen).
B8 showed a Kd of 3.8 nM. For B17, the Kd was 23.4 nM. B18 gave a Kd of 12.3 nM. For B9, the Kd was 4.74 nM. Binder B19 has a Kd of 17 nM. B20 gave a Kd of 30.7 nM. Binder B10 has a Kd of 3.92 nM. Binder B1 has a Kd of 29.4 nM. B21 showed a Kd of 6.65 nM. B22 was tested, and the Kd was 3.74 nM. B23 gave a Kd of 10.6 nM. For B24, the Kd was 8.92 nM. Binder B25 has a Kd of 4.54 nM. B26 gave a Kd of 15.8 nM. B11 was tested, and the Kd was 4.07 nM. B2 showed a Kd of 10.7 nM. In the case of B27, the Kd is reported as 14 nM. In the case of B28, the Kd is reported as 35.7 nM. In the case of B29, the Kd is reported as 12.9 nM. For B30, the Kd was 18.8 nM. B31 showed a Kd of 13.6 nM. B32 was tested, and the Kd was 9.99 nM. B33 showed a Kd of 5.14 nM. With B3 the Kd was 5.53 nM. Binder B34 has a Kd of 15.4 nM. B35 showed a Kd of 4.19 nM. Work on B36 yielded a Kd of 62.7 nM. B37 gave a Kd of 24.5 nM. Work on B13 yielded a Kd of 3.05 nM. B4 was tested, and the Kd was 6.28 nM. Binder B38 has a Kd of 18 nM. With B39 the Kd was 32.6 nM. B40 gave a Kd of 30.6 nM. B41 showed a Kd of 14.2 nM. B6 showed a Kd of 5.82 nM. B42 gave a Kd of 17.9 nM. For B15, the Kd was 9.83 nM. Binder B7 has a Kd of 6.35 nM. In the case of B43, the Kd is reported as 12.2 nM. B44 was tested, and the Kd was 10.1 nM.
